Measurements published in PMC9544432 (Proteins, 2021).
Numbering of substitutions follows the chain as printed. Like-named read-outs stand apart in the source and are kept apart here.

Legend:
Experiment in all cases: SPR
[1] = target: T1, VEGFR2(D2–3), domains 2 and 3 of the extracellular portion of human VEGFR2, wild type (human)
T1 chain: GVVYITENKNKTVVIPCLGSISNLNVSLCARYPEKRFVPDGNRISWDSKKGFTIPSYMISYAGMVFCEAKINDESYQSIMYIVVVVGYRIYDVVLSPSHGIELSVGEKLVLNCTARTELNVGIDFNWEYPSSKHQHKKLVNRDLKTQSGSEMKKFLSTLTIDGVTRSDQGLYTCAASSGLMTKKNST

VEGFR2(D2–3) D257A/E261A = target: T2, VEGFR2(D2–3) D257A/E261A (human)
T2 chain: T1 chain with D124A, E128A

[2] = target: T1, VEGFR2(D2–3), domains 2 and 3 of the …

Kd [1]: 1.3 nM
Kd (VEGFR2(D2–3) D257A/E261A): 35.8 nM
Kd [2]: 0.22 nM
B1: KD035 antigen-binding fragment (Fab) (Fab, V domains shown)
VH: EVQLLESGGGLVQPGGSLRLSCAASGFTFSWYVMGWVRQAPGKGLEWVSSIYPSGGATNYADSVKGRFTISRDNSKNTLYLQMNSLRAEDTAVYYCARGNYFDYWGQGTLVTVSS
VL: QSVLTQPPSVSVSPGQTASITCSGEKLGDEYASWYQQKPGQSPVLVIYQDNKRPSGIPERFSGSNSGNTATLTISGTQAMDEADYYCQAWDSSTLLFGGGTKLTVL
